From patent publication US20260241018A1 (BIOCYTOGEN PHARMACEUTICALS BEIJING, published 2026)

Legend:
h5T4-His protein [1] = target: T1, h5T4-His protein (human, UniProt Q13641 32-355, limits assumed); test: epitope binding assay, h5T4-His captured; binder = analyte 2; competitor (analyte 1): 35B12
T1 construct: also called His-tagged human 5T4 protein; not shown: His tag
T1 sequence (looked up): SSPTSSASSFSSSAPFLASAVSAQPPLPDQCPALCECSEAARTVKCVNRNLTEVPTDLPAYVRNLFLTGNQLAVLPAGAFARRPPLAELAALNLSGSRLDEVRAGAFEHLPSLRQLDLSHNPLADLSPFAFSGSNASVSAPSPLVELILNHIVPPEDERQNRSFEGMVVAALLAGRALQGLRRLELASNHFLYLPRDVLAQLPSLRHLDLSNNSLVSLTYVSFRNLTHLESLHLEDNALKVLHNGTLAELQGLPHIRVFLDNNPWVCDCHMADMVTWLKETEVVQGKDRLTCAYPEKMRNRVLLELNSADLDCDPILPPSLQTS
Description: (§1) Epitope binding assays were performed using ForteBio Octet system to determine whether two anti-5T4 antibodies target the same or overlapping epitopes. 1×HBS-EP+buffer (10 mM 4-(2-hydroxyethyl)-1-piperazineethanesulfonic acid (HEPES), 150 mM NaCl, 3 mM ethylenediaminetetraacetic acid (EDTA) and 0.05% P20, pH7.4) diluted from HBS-EP+buffer (10×) was used as the running buffer throughout the experiment. About 50 RU of h5T4-His protein was captured at a flow rate of 10 μL/min, and 200 nM of the tested antibody was injected at a flow rate of 30 μL/min to bind the ligand. Another comparison antibody was injected under the same conditions to determine whether the binding of different antibodies interfered with each other. The binding time was 180 s for each antibody.
(§2) The binding value of each antibody was obtained using Data Analysis HT 12.0. To quantify the interference of one antibody binding to another, a binding ratio was calculated to compare each pair of antibodies. The binding ratio is defined as the binding value of the second antibody (analyte 2), divided by the binding value of the first antibody (analyte 1). […] In general, antibody pairs that interfere with each other have the same or overlapping epitopes.

h5T4-His protein [2] = target: T1, h5T4-His protein; test: epitope binding assay, h5T4-His captured; binder = analyte 2; competitor (analyte 1): 31G4
Description: as §1, §2

h5T4-His protein [3] = target: T1, h5T4-His protein; test: epitope binding assay, h5T4-His captured; binder = analyte 2; competitor (analyte 1): 32E3
Description: as §1, §2

[4] = target: T2, 5T4 on NCI-H226 cells, NCI-H2030 cells and HCC827 cells (UniProt Q13641 32-420, limits assumed); test: flow cytometry on NCI-H226 cells, Alexa Fluor 647 anti-human IgG Fc secondary antibody, MFI
T2 construct: whole, on cells
T2 sequence (looked up): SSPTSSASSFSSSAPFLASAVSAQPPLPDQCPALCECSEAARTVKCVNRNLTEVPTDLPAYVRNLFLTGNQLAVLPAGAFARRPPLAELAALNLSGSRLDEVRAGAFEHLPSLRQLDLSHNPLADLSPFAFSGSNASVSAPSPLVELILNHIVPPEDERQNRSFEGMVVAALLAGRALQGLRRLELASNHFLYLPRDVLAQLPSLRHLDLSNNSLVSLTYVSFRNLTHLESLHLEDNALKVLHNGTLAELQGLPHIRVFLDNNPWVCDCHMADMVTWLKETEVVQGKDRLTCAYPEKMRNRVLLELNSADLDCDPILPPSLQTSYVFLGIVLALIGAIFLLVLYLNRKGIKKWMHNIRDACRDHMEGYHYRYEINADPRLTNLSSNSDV
Description: NCI-H226 cells, NCI-H2030 cells or HCC827 cells were plated in a 96-well plate at a density of 2×10⁵ cells/well. Serially diluted purified anti-5T4 antibody 32G1 or the positive control PF06263507 analog-SI (maximum concentration: 20 μg/mL, 2-fold dilutions, 12 gradients) were added to each well and were incubated at 4° C. for 30 minutes. Then, after one wash with PBS, the cells were incubated with the secondary antibody Alexa Fluor® 647 anti human IgG Fcγ (Jackson ImmunoResearch Laboratories, Inc., Cat #: 109-606-170) at 4° C. for 15 minutes before flow cytometry analysis.
The cells were collected, and the mean fluorescence intensity (MFI) was determined.

[5] = target: T3, His-tagged 5T4 protein of human (h5T4, ACRO Biosystems Inc., Cat #: TPG-H52E5) (human, UniProt Q13641 32-355); test: SPR (Biacore 8K), antibody captured on Protein A chip, His-tagged 5T4 as analyte
T3 construct: Bought protein; not shown: His tag
T3 sequence (looked up): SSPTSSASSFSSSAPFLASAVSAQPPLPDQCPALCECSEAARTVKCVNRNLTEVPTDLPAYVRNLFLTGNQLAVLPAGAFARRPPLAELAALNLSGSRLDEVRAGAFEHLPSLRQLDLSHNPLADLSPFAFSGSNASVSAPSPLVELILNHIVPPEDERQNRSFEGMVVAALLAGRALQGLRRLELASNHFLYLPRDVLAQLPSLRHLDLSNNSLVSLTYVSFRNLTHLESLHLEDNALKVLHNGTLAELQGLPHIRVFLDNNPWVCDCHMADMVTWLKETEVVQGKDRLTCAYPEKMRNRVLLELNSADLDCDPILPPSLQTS
Description: (§3) Purified anti-5T4 antibodies were diluted to 2 μg/mL and then injected into the Biacore™ 8K biosensor at 10 μL/min for about 50 seconds to achieve a desired protein density (e.g., about 50 response units (RU)). His-tagged 5T4 protein at a concentration of 200 nM was then injected at 30 μL/min for 180 seconds. Dissociation was monitored for 400 seconds. The chip was regenerated after the last injection of each titration with Glycine (pH 2.0), 30 μL/min for 30 seconds. For ISO control, an antibody targeting an irrelevant target protein was used.
(§4) As a person of ordinary skill in the art would understand, the same method with appropriate adjustments for parameters (e.g., antibody concentration) was performed for each tested antibody.

[6] = target: T4, His-tagged 5T4 protein of monkey (fas5T4, ACRO Biosystems Inc., Cat #: TPG-C52H3) (monkey, UniProt Q4R8Y9 35-355); test: as above
T4 construct: Bought protein
T4 sequence: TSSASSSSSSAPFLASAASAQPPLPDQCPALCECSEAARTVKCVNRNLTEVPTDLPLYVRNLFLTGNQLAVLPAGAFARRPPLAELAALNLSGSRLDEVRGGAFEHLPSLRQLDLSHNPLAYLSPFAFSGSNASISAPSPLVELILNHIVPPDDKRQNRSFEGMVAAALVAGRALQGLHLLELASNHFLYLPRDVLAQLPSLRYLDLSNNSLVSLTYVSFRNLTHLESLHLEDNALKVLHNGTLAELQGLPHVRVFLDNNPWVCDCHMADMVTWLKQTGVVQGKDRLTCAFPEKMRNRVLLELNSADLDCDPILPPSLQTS
Description: as §3, §4

- binding ratio (h5T4-His protein [1]): -0.02
- binding ratio (h5T4-His protein [2]): 0.89
- binding ratio (h5T4-His protein [3]): 0.89
- EC50 (read off the curve) [4]: ~0.3 µg/mL
- Kd [5]: 368 nM
- koff [5]: 0.0249 s⁻¹
- kon [5]: 67700 M⁻¹ s⁻¹
- Kd [6]: 70.1 nM
- koff [6]: 12.3 s⁻¹
- kon [6]: 1.75e+08 M⁻¹ s⁻¹
B1: 32G1 (antibody, V domains shown)
VH: QVQLVQSGGGLVKPGGSLRLSCVASGFTFSDYYMNWVRQAPGKGLEWISYVGTESIYTYYADTVKGRFTISRDNAKNSLYLQMNSLRAEDTALYYCARARDYNLYGMDVWGQGTTVTVSS
VL: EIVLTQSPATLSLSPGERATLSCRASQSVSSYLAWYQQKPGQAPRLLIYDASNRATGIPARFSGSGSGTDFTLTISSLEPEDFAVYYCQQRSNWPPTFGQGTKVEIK
notes: also called anti-5T4 antibody 32G1
